Target: ATAD2B bromodomain (residues 953–1085) (human) (UniProt Q9ULI0)
Experiment: ITC

Chain of ATAD2B bromodomain (residues 953–1085) (human) (Q9ULI0 953-1085): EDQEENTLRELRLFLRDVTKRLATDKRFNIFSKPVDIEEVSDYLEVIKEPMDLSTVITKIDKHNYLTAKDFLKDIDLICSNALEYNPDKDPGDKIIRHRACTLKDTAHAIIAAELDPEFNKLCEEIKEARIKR

Substance | Kd
H4K12ac (res 4–17) (peptide) | 50.5 µM
H4K12acK16ac (res 10–20) (peptide) | 214 µM

Source: paper PMC7884259
